Measurements from PMC5759264.

Molecular target: Recombinant human His-tagged CEACAM5 extracellular domain (human) (UniProt P06731)
Experiment: BLI

Chain of UniProt P06731 (P06731 35-702): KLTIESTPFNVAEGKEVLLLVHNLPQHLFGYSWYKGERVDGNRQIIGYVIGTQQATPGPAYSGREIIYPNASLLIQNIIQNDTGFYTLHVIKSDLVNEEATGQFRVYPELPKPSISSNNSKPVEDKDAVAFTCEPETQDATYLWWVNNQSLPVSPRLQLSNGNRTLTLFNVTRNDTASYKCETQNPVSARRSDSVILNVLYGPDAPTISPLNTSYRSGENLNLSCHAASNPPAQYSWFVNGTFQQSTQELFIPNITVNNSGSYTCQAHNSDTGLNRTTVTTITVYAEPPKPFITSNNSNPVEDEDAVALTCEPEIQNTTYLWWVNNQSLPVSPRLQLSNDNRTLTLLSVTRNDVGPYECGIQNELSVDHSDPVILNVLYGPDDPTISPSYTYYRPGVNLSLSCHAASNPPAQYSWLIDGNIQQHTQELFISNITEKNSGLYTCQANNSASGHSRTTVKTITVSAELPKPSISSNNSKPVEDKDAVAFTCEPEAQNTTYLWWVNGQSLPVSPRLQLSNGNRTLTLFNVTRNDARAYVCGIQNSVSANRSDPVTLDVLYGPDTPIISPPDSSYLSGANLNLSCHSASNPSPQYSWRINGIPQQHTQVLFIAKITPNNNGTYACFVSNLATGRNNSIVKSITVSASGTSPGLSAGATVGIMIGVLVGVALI

| Kd [nM] | Substance |
| --- | --- |
| 2.5 | common light chain IgG variant 4F02 (from UniProt P01624) |
| 0.6 | common light chain IgG variant 4G07 (from UniProt P01624) |
